These results are taken from publication PMC11480844 (2024).

B1: H2-Kb / Ed28 (parent complex)
chain 1: AQSVTQPDARVTVSEGASLQLRCKYSYFGTPYLFWYVQYPRQGLQLLLKYYPGDPVVQGVNGFEAEFSKSNSSFHLRKASVHWSDWAVYFCAVSPGSGGKLTLGAGTRLQVNL
chain 2: DSGVVQSPRHIIKEKGGRSVLTCIPISGHSNVVWYQQTLGKELKFLIQHYEKVERDKGFLPSRFSVQQFDDYHSEMNMSALELEDSAMYFCASSPRASDYTFGSGTRLLVI
chain 3: not shown
chain 4: IQKTPQIQVYSRHPPENGKPNILNCYVTQFHPPHIEIQMLKNGKKIPKVEMSDMSFSKDWSFYILAHTEFTPTETDTYACRVKHDSMAEPKTVYWDRDM
chain 5: SIINFEKL
B2: H2-Kb / F4 (parent complex)
chain 1: QQQVRQSPQSLTVWEGETAILNCSYEDSTFNYFPWYQQFPGEGPALLISIRSVSDKKEDGRFTIFFNKREKKLSLHITDSQPGDSATYFCAAMSNYNVLYFGSGTKLTVEP
chain 2: ETAVFQTPNYHVTQVGNEVSFNCKQTLGHDTMYWYKQDSKKLLKIMFSYNNKQLIVNETVPRRFSPQSSDKAHLNLRIKSVEPEDSAVYLCASSARQNSPLYFAAGTRLTVT
chain 3: not shown
chain 4: B1 chain 4
chain 5: SIINFEKL
Further: test concentration or dose not given here.

The variants in one assay derive from B1. The experiment in a line: % of reporter cells activated (NFAT-GFP), raw.
Turning to chain 5 E6M, the ratio to parent came out at 0.0743.

With chain 5 K7E, the ratio to parent turned out to be 0.013.

Take chain 5 F5Q: the ratio to parent was 0.455.

For the variant chain 5 F5S, the ratio to parent amounted to 0.867.

Take chain 5 F5I: the ratio to parent is 0.388.

In the case of chain 5 I2T, the ratio to parent turned out to be 1.34.

With chain 5 S1M, the ratio to parent worked out at 0.908.

Turning to chain 5 L8N, the ratio to parent amounted to 0.594.

Take chain 5 L8Y: the ratio to parent was 0.902.

Take chain 5 N4S: the ratio to parent amounted to 0.0271.

For chain 5 N4W, the ratio to parent worked out at 0.00775.

In the case of chain 5 N4G, the ratio to parent was found to be 0.00642.

Another assay covers variants of B2. The experiment in a line: % of reporter cells activated (NFAT-GFP), raw.
On to chain 5 F5R, for which the ratio to parent was 0.285.

For chain 5 F5E, the ratio to parent came out at 0.0661.

As to chain 5 F5H, the ratio to parent worked out at 1.01.

In the case of chain 5 F5K, the ratio to parent turned out to be 0.109.

Regarding chain 5 F5Y, the ratio to parent worked out at 0.526.

In the case of chain 5 F5L, the ratio to parent stood at 0.554.

On to chain 5 F5W, for which the ratio to parent is 0.083.

Take chain 5 F5V: the ratio to parent is 1.38.

For chain 5 F5A, the ratio to parent was found to be 0.967.

In the case of chain 5 F5Q, the ratio to parent was 0.517.

For the variant chain 5 F5I, the ratio to parent was 1.36.

For chain 5 F5N, the ratio to parent turned out to be 0.225.

Consider chain 5 F5M, for which the ratio to parent is 1.29.

As to chain 5 F5S, the ratio to parent was 0.767.

Regarding chain 5 F5T, the ratio to parent amounted to 1.19.

chain 5 E6W: the ratio to parent is 0.113.

For the variant chain 5 E6C, the ratio to parent came out at 0.537.

On to chain 5 E6H, for which the ratio to parent was 0.0263.

chain 5 E6P: the ratio to parent is 0.0487.

chain 5 E6I: the ratio to parent stood at 0.00942.

Regarding chain 5 E6A, the ratio to parent was found to be 0.05.

chain 5 E6V: the ratio to parent amounted to 0.0232.

With chain 5 E6L, the ratio to parent is 0.0121.

Take chain 5 E6K: the ratio to parent was 0.118.

For the variant chain 5 E6G, the ratio to parent worked out at 0.0237.

Turning to chain 5 E6F, the ratio to parent amounted to 0.033.

In the case of chain 5 E6T, the ratio to parent is 0.0219.

With chain 5 E6R, the ratio to parent worked out at 0.0897.

Take chain 5 E6S: the ratio to parent was 0.0357.

Take chain 5 E6M: the ratio to parent was 0.0214.

Turning to chain 5 E6Q, the ratio to parent worked out at 0.0246.

With chain 5 E6N, the ratio to parent was determined as 0.0563.

As for chain 5 E6D, the ratio to parent is 0.987.

For the variant chain 5 E6Y, the ratio to parent was found to be 0.0161.

With chain 5 I2H, the ratio to parent was 0.0964.

In the case of chain 5 I2G, the ratio to parent is 1.45.

With chain 5 I2R, the ratio to parent turned out to be 0.393.

For the variant chain 5 I2P, the ratio to parent was found to be 0.16.

As to chain 5 I2S, the ratio to parent was found to be 1.05.

Take chain 5 I2C: the ratio to parent stood at 2.17.

Turning to chain 5 I2K, the ratio to parent is 0.0728.

With chain 5 I2D, the ratio to parent stood at 0.406.

As for chain 5 I2T, the ratio to parent is 0.773.

Regarding chain 5 I2Y, the ratio to parent was 0.108.

With chain 5 I2L, the ratio to parent amounted to 1.25.

For chain 5 I2Q, the ratio to parent is 0.181.

Consider chain 5 I2F, for which the ratio to parent came to 0.955.

In the case of chain 5 I2E, the ratio to parent came out at 0.807.

For chain 5 I2W, the ratio to parent was 0.641.

Turning to chain 5 S1P, the ratio to parent worked out at 0.0438.

As for chain 5 S1Q, the ratio to parent stood at 0.0344.

As to chain 5 S1H, the ratio to parent amounted to 0.0509.

For chain 5 S1W, the ratio to parent worked out at 0.0183.

For chain 5 S1G, the ratio to parent came to 0.188.

With chain 5 S1L, the ratio to parent was determined as 0.0263.

chain 5 S1Y: the ratio to parent was determined as 0.0768.

For chain 5 S1M, the ratio to parent came out at 0.0268.

In the case of chain 5 S1V, the ratio to parent came to 0.0638.

On to chain 5 S1D, for which the ratio to parent turned out to be 0.0189.

Turning to chain 5 S1T, the ratio to parent came out at 0.0232.

Regarding chain 5 S1C, the ratio to parent was 0.0254.

Take chain 5 S1I: the ratio to parent was 0.0174.

For the variant chain 5 S1F, the ratio to parent was 0.0348.

In the case of chain 5 S1K, the ratio to parent turned out to be 0.0638.

On to chain 5 S1A, for which the ratio to parent was 0.0272.

Consider chain 5 S1N, for which the ratio to parent was determined as 0.0308.

In the case of chain 5 S1E, the ratio to parent turned out to be 0.029.

chain 5 K7N: the ratio to parent amounted to 0.254.

For the variant chain 5 K7V, the ratio to parent amounted to 0.927.

Regarding chain 5 K7S, the ratio to parent turned out to be 0.261.

chain 5 K7T: the ratio to parent came out at 0.628.

Take chain 5 K7Q: the ratio to parent turned out to be 0.417.

Regarding chain 5 K7P, the ratio to parent came out at 0.0549.

As for chain 5 K7C, the ratio to parent came to 0.377.

In the case of chain 5 K7M, the ratio to parent came to 0.651.

As for chain 5 K7W, the ratio to parent was determined as 0.517.

With chain 5 K7G, the ratio to parent was 0.234.

With chain 5 K7F, the ratio to parent was 0.726.

For chain 5 K7I, the ratio to parent was determined as 0.771.

Consider chain 5 K7E, for which the ratio to parent stood at 0.105.

As to chain 5 K7Y, the ratio to parent was found to be 1.03.

Turning to chain 5 K7L, the ratio to parent was found to be 0.85.

As to chain 5 K7A, the ratio to parent came out at 0.222.

As to chain 5 K7D, the ratio to parent came to 0.101.

As to chain 5 K7R, the ratio to parent was 1.23.

On to chain 5 K7H, for which the ratio to parent is 1.35.

In the case of chain 5 L8M, the ratio to parent is 0.723.

On to chain 5 L8A, for which the ratio to parent turned out to be 0.395.

On to chain 5 L8E, for which the ratio to parent worked out at 0.355.

On to chain 5 L8Y, for which the ratio to parent amounted to 0.898.

Consider chain 5 L8S, for which the ratio to parent was 0.515.

On to chain 5 L8I, for which the ratio to parent is 0.903.

In the case of chain 5 L8V, the ratio to parent worked out at 0.457.

chain 5 L8P: the ratio to parent is 0.48.

In the case of chain 5 L8Q, the ratio to parent was 0.759.

As for chain 5 L8K, the ratio to parent came to 0.352.

Consider chain 5 L8G, for which the ratio to parent worked out at 0.564.

In the case of chain 5 L8C, the ratio to parent was 0.783.

In the case of chain 5 L8R, the ratio to parent is 0.276.

chain 5 L8N: the ratio to parent was 0.47.

For chain 5 L8D, the ratio to parent worked out at 0.312.

On to chain 5 L8W, for which the ratio to parent turned out to be 0.491.

On to chain 5 L8F, for which the ratio to parent was 0.564.

With chain 5 N4D, the ratio to parent was found to be 0.0277.

Take chain 5 N4Y: the ratio to parent was 0.0299.

On to chain 5 N4Q, for which the ratio to parent was 0.0116.

Consider chain 5 N4A, for which the ratio to parent came out at 0.0308.

As for chain 5 N4T, the ratio to parent is 0.0402.

As for chain 5 N4H, the ratio to parent is 0.0344.

As to chain 5 N4V, the ratio to parent is 0.0362.

On to chain 5 N4G, for which the ratio to parent came out at 0.225.

Regarding chain 5 N4K, the ratio to parent is 0.0286.

Regarding chain 5 N4C, the ratio to parent is 0.0522.

Regarding chain 5 N4I, the ratio to parent was 0.0205.

As for chain 5 N4F, the ratio to parent came to 0.0339.

As to chain 5 N4L, the ratio to parent was 0.0594.

For chain 5 N4S, the ratio to parent is 0.0317.

chain 5 N4R: the ratio to parent is 0.0277.

With chain 5 N4P, the ratio to parent was determined as 0.0246.

As for chain 5 N4M, the ratio to parent was determined as 0.021.

Turning to chain 5 I3W, the ratio to parent was 0.358.

As for chain 5 I3N, the ratio to parent is 0.188.

For chain 5 I3S, the ratio to parent was found to be 0.106.

In the case of chain 5 I3K, the ratio to parent was 0.262.

As to chain 5 I3C, the ratio to parent is 0.558.

Consider chain 5 I3E, for which the ratio to parent is 0.0777.

As for chain 5 I3M, the ratio to parent came to 0.125.

For the variant chain 5 I3T, the ratio to parent came out at 0.204.

Turning to chain 5 I3Y, the ratio to parent is 0.517.

In the case of chain 5 I3R, the ratio to parent was found to be 0.0634.

For chain 5 I3G, the ratio to parent was found to be 0.0625.

Turning to chain 5 I3P, the ratio to parent is 0.083.

Consider chain 5 I3V, for which the ratio to parent was found to be 1.74.

For chain 5 I3Q, the ratio to parent amounted to 0.0638.

Take chain 5 I3L: the ratio to parent was 2.05.

As to chain 5 I3H, the ratio to parent came out at 0.0214.

For chain 5 I3F, the ratio to parent was found to be 1.

chain 5 I3D: the ratio to parent stood at 0.0344.
